Measurements taken from patent publication CN117083298A (CENTOCOR ORTHO BIOTECH INC, dated 2023).
Values belong to the binder of their own block, whether it stands above or below them.

Key:
人全长重组tau(2N4R) [1] = target: T1, 人全长重组tau(2N4R) (human, UniProt P10636 2-758); test: SPR, single-cycle kinetics
T1 construct: also called human full-length recombinant tau; 全长重组Tau蛋白

人全长重组tau(2N4R) [2] = target: T1, 人全长重组tau(2N4R); test: SPR, Biacore T200, 25 °C, mAb captured by anti-Fc on a CM4 chip, tau as analyte, 1:1 Langmuir fit

T1 sequence (P10636 other isoform, or with tags, fused parts or gaps limits assumed): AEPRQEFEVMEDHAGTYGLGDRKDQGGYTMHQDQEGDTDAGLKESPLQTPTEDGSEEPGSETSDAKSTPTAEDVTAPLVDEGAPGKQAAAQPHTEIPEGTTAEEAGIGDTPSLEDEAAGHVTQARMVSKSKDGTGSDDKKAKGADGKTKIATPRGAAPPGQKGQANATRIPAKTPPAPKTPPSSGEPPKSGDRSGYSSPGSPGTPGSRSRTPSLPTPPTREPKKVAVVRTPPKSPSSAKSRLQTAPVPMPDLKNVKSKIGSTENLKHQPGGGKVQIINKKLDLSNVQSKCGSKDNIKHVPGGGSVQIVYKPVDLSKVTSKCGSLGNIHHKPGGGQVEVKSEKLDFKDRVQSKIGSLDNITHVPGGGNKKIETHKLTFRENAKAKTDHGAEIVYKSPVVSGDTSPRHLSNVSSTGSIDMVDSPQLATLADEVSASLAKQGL

binding result (人全长重组tau(2N4R) [1]): binds
B1: PT1B1183 (antibody, human IgG1, kappa, V domains shown)
VH: QVQLVQSGAEVKKPGASVKVSCKASGYTFTSYWITWVRQRPGQGLEWMGDIHPGRGSTKYAQKLQGRVTMTTDTSTSTAYMELRSLRSDDTAVYYCARRWGFDYWGQGTLVTVSS
VL: DIVMTQTPLSSPVTLGQPASISCRSSKSLLYKDGKTYLNWFQQRPGQSPRLLIYLMSTRASGVPDRFSGSGAGTDFTLKISRVEAEDVGVYYCQQLVDYPLTFGQGTKLEIKR
notes: Humanised antibody obtained from PT1B1153 by modifying framework region 2 of the light chain

binding result (人全长重组tau(2N4R) [2]): binds
B2: PT1B545 (antibody, mouse IgG2a, kappa, V domains shown)
VH: QVQLQQPGAELVKPGASVKMSCKASGYTFTSYWITWVKQRPGQGLEWIGDIHPGRGSTKSNEKFKSKATLTVDTSSSTAYMQFSSLTSEDSAVYYCARRWGFDYWGQGTTLTVSS
VL: DIVITQDELSNPVTSGESVSISCRSSKSLLYKDGKTYLNWFLQRPGQSPQLLIYLMSTRASGVSDRFSGSGSGTDFTLEISRVKAEDVGVYYCQQLVDYPLTFGAGTKLELKR
notes: Parental mouse mAb; also called PT/66; 亲本mAb PT/66
